Measurements from patent publication US20070292909A1 (RIKEN, published 2007).

Legend:
[1] = target: the molecule itself; test: ultracentrifugal molecular weight measurement of self-association
[2] = target: the molecule itself; test: ultracentrifugal analysis of self-association: 28 kDa measured, 26 kDa predicted
Method: An mKO protein solution with the composition consisting of 150 mM KCl and 50 mM HEPES-KOH (pH 7.4) was prepared. The molecular weight of mKO was determined by ultracentrifugal analysis. The above solution was centrifuged with an ultracentrifuge XL-1 (Beckman Coulter) at 25,000 rpm for 22 hours, so as to measure absorption at 540 nm around the maximum absorption (548 nm) of mKO. From the measurement results, the molecular weight of mKO was calculated to be 28 kDa (FIG. 3). This value was almost the same as 26 kDa predicted from the amino acid sequence, and thus it was confirmed that mKO exists in the form of a monomer.

B1: cmkeima 620 (other)
chain: MRGSHHHHHHGMASMTGGQQMGRDLYDDDDKDPMVSVIAKQMTYKVYMSGTVNGHYFEVEGDGKGKPYEGEQTVKLTVTKGGPLPFAWDILSPQFQYGSIPFTKYPEDIPDYFKQSFPEGYTWERSMNFEDGAVCTVSNDSSIQGNCFIYNVKISGENFPPNGPVMQKKTQGWEPSTERLFARDGMLIGNDYMALKLEGGGHYLCEFKSTYKAKKPVRMPGRHEIDRKLDVTSHNRDYTSVEQCEIAIARHSLLG
- binding result [1]: no binding

B2: monomerized Kusabira-Orange (mKO) (other)
chain: MVSVIKPEMKMRYYMDGSVNGHEFTIEGEGTGRPYEGHQEMTLRVTMAKGGPMPFAFDLVSHVFCYGHRPFTKYPEEIPDYFKQAFPEGLSWERSLEFEDGGSASVSAHISLRGNTFYHKSKFTGVNFPADGPIMQNQSVDWEPSTEKITASDGVLKGDVTMYLKLEGGGNHKCQFKTTYKAAKKILKMPGSHYISHRLVRKTEGNITELVEDAVAHS
notes: also called KO mutant
- binding result [2]: no binding
